Earlier results in article PMC7290885.
Like-named read-outs stand apart in the source and are kept apart here.

Experiments:
GLP-1R (Homo sapiens) [1] = biological target: GLP-1R (Homo sapiens) (UniProt P43220)
GLP-1R (Homo sapiens) [2] = biological target: GLP-1R (Homo sapiens) (UniProt P43220); remark: listed apart in the source
GLP-1R (Homo sapiens) [3] = biological target: GLP-1R (Homo sapiens) (UniProt P43220); remark: listed apart in the source
GLP-1R (Homo sapiens) [4] = biological target: GLP-1R (Homo sapiens) (UniProt P43220); remark: listed apart in the source

UniProt P43220, sequence (P43220 24-463): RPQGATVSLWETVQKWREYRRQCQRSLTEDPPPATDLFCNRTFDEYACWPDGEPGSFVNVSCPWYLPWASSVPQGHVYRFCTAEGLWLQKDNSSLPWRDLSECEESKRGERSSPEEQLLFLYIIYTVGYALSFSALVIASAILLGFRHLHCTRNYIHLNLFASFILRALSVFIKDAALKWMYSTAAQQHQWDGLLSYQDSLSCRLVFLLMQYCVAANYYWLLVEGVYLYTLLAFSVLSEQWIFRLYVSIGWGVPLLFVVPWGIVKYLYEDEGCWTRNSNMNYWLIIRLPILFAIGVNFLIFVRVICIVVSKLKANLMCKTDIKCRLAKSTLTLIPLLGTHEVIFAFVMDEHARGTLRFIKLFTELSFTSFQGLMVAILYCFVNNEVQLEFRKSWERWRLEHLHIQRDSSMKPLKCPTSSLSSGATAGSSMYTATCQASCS

LCA-M1 (exendin-4 derivative) (from UniProt P26349)
Kd (GLP-1R (Homo sapiens) [1]): 470 pM

exendin-4 (from UniProt P26349)
Kd (GLP-1R (Homo sapiens) [2]): 140 pM

LCA-Di (exendin-4 derivative) (from UniProt P26349)
Kd (GLP-1R (Homo sapiens) [3]): 71700 pM

LCA-M2 (exendin-4 derivative) (from UniProt P26349)
Kd (GLP-1R (Homo sapiens) [4]): 550 pM
